Assay results published in paper PMC10104896 (2023).
Where no end group is shown, it is not given here.

Experiments:
12mTau-acK280 peptide [1] = target: T1, 12mTau-acK280 peptide (human); experiment: BLI
T1 chain: VQIINK(Ac)KLDLSN

12mTau-acK280 peptide [2] = target: T1, 12mTau-acK280 peptide; experiment: BLI

Kd (12mTau-acK280 peptide [1]): 0.257 nM
koff (12mTau-acK280 peptide [2]): 0.000115 s⁻¹
B1: Y01, monoclonal anti–tau-acK280 antibody (antibody, V domains shown)
VH: QVQLQESGPGLVKPSQTLSLTCTVSGDSITSGYWNWIRQPPGKGLEYIGYIRYSGRTYYNPSLKSRVTISRDTSKNQFSLKLSSVTAADTAVYYCASVYFTYWGQGTLVTVSS
VL: DVVMTQTPLSLPVTLGQPASISCKSSQSLLDSDGKTYLNWFQQRPGQSPKRLISLVSKLDSGVPDRFSGSGSGTDFTLKISRVEAEDVGVYYCWQGSHFPYTFGQGTKLEIK
